The record followed here is patent US20110190142A1, “DETERMINATION OF RENIN-PRORENIN RECEPTOR ACTIVITY” (Charite- Universitatsmedizin Berlin, priority 2006, published 2011).

Series [1] concerns renin/prorenin receptor (RER). Nature of the series: PI3K-p85α mRNA by quantitative real-time PCR after renin/prorenin stimulation of HEK293 cells. The format is cell-based, human. As for the experimental part:
(§1) HEK293 cells were seeded in 24-well plates and transfected with either 100 ng of pCEP4-PLZF-myc expression vector, 50 ng of indicated pGL3-basic construct and 10 ng of phRL-null plasmid (for luciferase assay), or 100 ng of pCEP4-PLZF-myc alone (for PCR experiments) per well as described above. siRNA transfection, renin stimulation and determination of reporter activity were performed as described above, except for an exceeded renin stimulation period of 3 hours.
(§2) RNA isolation and cDNA synthesis were performed as described above. qPCR was performed applying a SYBR Green I reaction mix and run on a Stratagene Mx3000P (Stratagene, La Jolla, Calif., USA) using the following primers: […]
(§3) Data represents the mean expression level±standard deviation (standardized to 18S rRNA expression) calculated according to the ddCT method of at least three independent measurements. Equality of PCR efficiencies has been verified applying the program LinRegPCR (Ramakers et al. 2003) and ANOVA testing.
(§4) For all cell culture studies immortalized human epithelial kidney cells (HEK293 cells) were used. […] Additional inhibition with 1 μM aliskiren was performed as indicated. 1 hour after pre-treatment with losartan±aliskiren cells were stimulated with either 5 nM renin, 5 nM prorenin, or the respective vehicle. Cells were harvested for mRNA expression analysis or determination of viable cell number and apoptosis after 3 or 24 hours, respectively. These experimental procedures have been described in detail previously (Schefe et al., 2006). All experiments were performed in independent triplicates.

Series [2] deals with RER mRNA. Put plainly: Down-regulation of RER mRNA by siRNA (real-time PCR). It counts as cell-based, human. To be noted: HEK293 cells. As for the experimental part: For PLZF translocation experiments HEK293 cells were seeded on day 1 in 6-well plates. 250 ng of pCEP4-PLZF-myc expression vector per well were transfected on day 2 at 40-60% confluency using GeneJuice (Merck Biosciences, Bad Soden, Germany) according to the manufacturer's protocol. On day 3 the cells were transfected with 50 nM siRNA against the RER [5′-GCUCCGUAAUCGCCUGUUU (sense strand), (SEQ ID No. 38); 5′-AAACAGGCGAUUACGGAGC (antisense strand), (SEQ ID No. 39)] or GFP control siRNA (Eurogentec, Seraing, Belgium) using jetSI-ENDO (Eurogentec) following the standard procedure. On day 5, after 24 hours of starving in serum-free medium, cells were stimulated with 10 nM human recombinant renin (mammalian expression; kind gift from Dominik N. Müller, MDC Berlin) or vehicle (0.1% DMSO in PBS) for 2 hours. Western blot was performed with anti-c-myc antibody (mouse monoclonal, 9B11; 1:2,000; Cell Signalling) and horseradish peroxidase-conjugated anti-mouse antibody (rabbit polyclonal; 1:2,500; DAKO). Chemoluminescence was detected with ECL (Amersham, München, Germany), and subsequent exposition to Hyperfilm (Amersham). […]

Series [3] deals with renin/prorenin receptor (RER). Put plainly: Renin- and prorenin-mediated RER activation (RER-PLZF pathway) in HEK293 cells with aliskiren or siRNA. It counts as cell-based, human. Here is the method: as §4
The test system of series [4] is RER protein. Put plainly: Down-regulation of RER protein by siRNA (Western blot, densitometry). The format is cell-based, human. To be noted: Western blot of total cell lysate. As for the experimental part: For analysis of subcellular localization of RER, 9 μg (membrane) and 12 μg (cytosolic) protein were loaded per lane, separated in a 10% SDS-PAGE and transferred to a nitrocellulose membrane. Western blot analysis was performed with an antibody against human RER (corresponding ATP6AP2; goat polyclonal, ab5959, Abcam, Cambridge, UK) at a dilution of 0.5 μg/ml. Horseradish peroxidase-conjugated anti-goat antibody (rabbit polyclonal; 1:2,500; DAKO, Hamburg, Germany) was used as secondary antibody.
For PLZF translocation experiments HEK293 cells were seeded on day 1 in 6-well plates. 250 ng of pCEP4-PLZF-myc expression vector per well were transfected on day 2 at 40-60% confluency using GeneJuice (Merck Biosciences, Bad Soden, Germany) according to the manufacturer's protocol. On day 3 the cells were transfected with 50 nM siRNA against the RER [5′-GCUCCGUAAUCGCCUGUUU (sense strand), (SEQ ID No. 38); 5′-AAACAGGCGAUUACGGAGC (antisense strand), (SEQ ID No. 39)] or GFP control siRNA (Eurogentec, Seraing, Belgium) using jetSI-ENDO (Eurogentec) following the standard procedure. […] Chemoluminescence was detected with ECL (Amersham, München, Germany), and subsequent exposition to Hyperfilm (Amersham).

The subject of series [5] is renin/prorenin receptor (RER). Nature of the series: PI3K-p85α promoter luciferase reporter assay under renin stimulation. It counts as cell-based, human. To be noted: PLZF-overexpressing HEK293 cells. Here is the method: The indicated cell types were seeded on day 1 in 12-well plates. 100 ng of indicated pGL3-basic constructs (encoding firefly luciferase) and 20 ng of phRL-null plasmid (encoding humanized Renilla luciferase for standardization of promoter activity; Promega) per well were transfected on day 2 at 60-80% confluency using GeneJuice (Merck Biosciences, Bad Soden, Germany) according to the manufacturer's protocol. Cells were harvested 48 hours after transfection using Passive Lysis Buffer (Promega). Reporter activities were measured in a Pharmingen Monolight 3010 luminometer (BD Biosciences, Erembodegem, Belgium) using the Dual-Luciferase Reporter Assay System (Promega). Promoter activity is expressed as relative luciferase activity (RLA) (Funke-Kaiser et al., 2003a). RLA data represent the mean±standard deviation of at least three single, parallel transfection experiments.
as §1

Series [6] has as its system renin/prorenin receptor (RER). Nature of the series: RER mRNA by quantitative real-time PCR after renin/prorenin stimulation of HEK293 cells. The format is cell-based, human. Here is the method: as §1, §2, §3, §4
For series [7], the system named is HEK293 cells. Put plainly: Number of viable cells (ATP concentration). It counts as cell-based, human. As for the experimental part:
as §4

In series [8] the target is endogenous human RER of HEK293 cells (human) (UniProt O75787). Nature of the series: cell-based or functional assay.
endogenous human RER of HEK293 cells (human), sequence (O75787 17-350): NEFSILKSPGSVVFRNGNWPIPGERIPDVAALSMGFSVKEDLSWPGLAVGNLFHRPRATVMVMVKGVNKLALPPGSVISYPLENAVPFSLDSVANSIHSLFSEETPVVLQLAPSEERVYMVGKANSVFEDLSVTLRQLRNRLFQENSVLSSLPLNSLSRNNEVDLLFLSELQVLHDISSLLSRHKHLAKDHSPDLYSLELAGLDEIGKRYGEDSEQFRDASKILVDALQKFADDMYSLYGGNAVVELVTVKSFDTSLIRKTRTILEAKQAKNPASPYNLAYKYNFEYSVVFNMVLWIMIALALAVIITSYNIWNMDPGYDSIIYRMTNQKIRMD
For series [9], the system named is HEK293 cells. Nature of the series: Caspase 3/7 activity as a measure of apoptosis. It counts as cell-based, human. As for the experimental part: as §4
Series [10] addresses T1, PLZF (promyelocytic zinc finger protein, ZBTB16), endogenous (Homo sapiens, UniProt Q05516 Q05516:1-673).
T1 sequence: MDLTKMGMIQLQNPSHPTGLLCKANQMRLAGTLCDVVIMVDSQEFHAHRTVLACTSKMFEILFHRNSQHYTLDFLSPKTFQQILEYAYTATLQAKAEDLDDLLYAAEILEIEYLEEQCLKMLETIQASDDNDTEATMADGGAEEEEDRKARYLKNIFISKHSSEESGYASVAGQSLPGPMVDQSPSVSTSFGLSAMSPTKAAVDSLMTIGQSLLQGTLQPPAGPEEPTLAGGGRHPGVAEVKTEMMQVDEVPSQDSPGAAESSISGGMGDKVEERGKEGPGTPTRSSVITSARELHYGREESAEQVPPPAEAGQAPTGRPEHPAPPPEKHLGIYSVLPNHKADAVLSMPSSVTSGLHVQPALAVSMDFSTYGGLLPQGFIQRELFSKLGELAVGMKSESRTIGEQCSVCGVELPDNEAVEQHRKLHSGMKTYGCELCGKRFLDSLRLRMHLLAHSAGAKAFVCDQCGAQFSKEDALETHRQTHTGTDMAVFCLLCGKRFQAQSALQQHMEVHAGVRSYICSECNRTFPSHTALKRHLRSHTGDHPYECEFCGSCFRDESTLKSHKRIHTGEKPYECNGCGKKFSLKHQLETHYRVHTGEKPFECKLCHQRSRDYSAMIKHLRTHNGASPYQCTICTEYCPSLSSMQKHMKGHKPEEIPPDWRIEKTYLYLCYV
Nature of the series: ChIP-qPCR in HEK293; about 6-fold increased recruitment to the RER promoter region around the element after renin vs vehicle. Conditions: tags: none (endogenous, HEK293).

The mark [11] stands for this setting: HEK293 cells transfected with scrambled control siRNA.
Setting [12] is: HEK293 cells, 5 nM, 3 hours, 1 μM losartan pre-treatment.

Turning to “siRNA against the RER: siRNA 5′-GCUCCGUAAUCGCCUGUUU (sense), 5′-AAACAGGCGAUUACGGAGC (antisense), SEQ ID No. 38/39 (listed as RNA, chemistry not given here; listed as Homo sapiens)”, the “influence on renin induction of PI3K-p85α mRNA” value in series [1] (HEK293 cells, regardless of PLZF expression level) is given as “abolished this induction”. For the same molecule, the “RER mRNA repressed to” value in [2] (50 nM siRNA) was 29.8±5.2%. In addition, the “average reduction of RER mRNA” value in [2] (siRNA transfected 24 hours before stimulation) was determined as 81.1±4.5%. In series [3] (siRNA 24 hours before prorenin), the “influence on transcriptional and cellular effects of prorenin stimulation” value is “completely abolished”. The “RER protein reduced to (densitometric measurement, compared to control)” value in series [4] is given as “less than 10%”. Besides, in series [5], the “influence on renin-induced increase in PI3K-p85α promoter activity” value is reported as “abolished”.
As for `COCCCOc1cc(C[C@@H](C[C@H](N)[C@@H](O)C[C@H](C(=O)NCC(C)(C)C(N)=O)C(C)C)C(C)C)ccc1OC` [aliskiren], the “influence on the effects of renin and prorenin (RER and PI3K-p85α transcription, proliferation, apoptosis)” value in series [3] (pre-treatment with 1 μM aliskiren) was “not affected”.

B1: prorenin (ligand, UniProt P00797 24-406, looked up, species assumed)
pro-form: LPTDTTTFKRIFLKRMPSIRESLKERGVDMARLGPEWSQPMKRLTLGNTTSSVILTNYMDTQYYGEIGIGTPPQTFKVVFDTGSSNVWVPSSKCSRLYTACVYHKLFDASDSSSYKHNGTELTLRYSTGTVSGFLSQDIITVGGITVTQMFGEVTEMPALPFMLAEFDGVVGMGFIEQAIGRVTPIFDNIISQGVLKEDVFSFYYNRDSENSQSLGGQIVLGGSDPQHYEGNFHYINLIKTGVWQIQMKGVSVGSSTLLCEDGCLALVDTGASYISGSTSSIEKLMEALGAKKRLFDYVVKCNEGPTLPDISFHLGGKEYTLTSADYVFQESYSSKKLCTLAIHAMDIPPPTGPTWALGATFIRKFYTEFDRRNNRIGFALAR
modifications: pro-form
As for B1, the “RER mRNA, % of vehicle control” value in series [6] (setting [11]) worked out at 59.7%. In addition, the “RER mRNA, % of vehicle control” value in [6] (setting [12]) amounted to 63.6%. The “PI3K-p85α mRNA, % of vehicle control” value in [1] (setting [11]) came out at 212.8%. Further, in series [1] (setting [12]), the “PI3K-p85α mRNA, % of vehicle control” value worked out at 175.8%. Further, the “increase of viable cell number” value in series [7] (setting [11]) worked out at 87.5%. The “increase of viable cell number compared to vehicle” value in series [7] (HEK293 cells, 5 nM, 24 hours) was determined as 123.8%. In series [8], this molecule had a PI3K-p85α mRNA after 3 hours, 5 nM prorenin, HEK293 cells (% of vehicle control) of 176; a PI3K-p85α mRNA, prorenin, HEK293 cells with scrambled control siRNA (% of vehicle control) of 213; an RER mRNA after 3 hours, 5 nM prorenin, HEK293 cells (% of vehicle control) of 63.6; an RER mRNA, prorenin, HEK293 cells with scrambled control siRNA (% of vehicle control) of 59.7. Besides, in series [8], the caspase 3/7 activity after 24 hours, 5 nM prorenin, HEK293 cells came to 35.7 % decrease; the caspase 3/7 activity, prorenin, HEK293 cells with scrambled control siRNA worked out at 53.4 % decrease; the viable cell number after 24 hours, 5 nM prorenin, HEK293 cells was 124 % increase; the viable cell number, prorenin, HEK293 cells with scrambled control siRNA is 87.5 % increase. For the same molecule, the “attenuation of caspase 3/7 activity” value in series [9] (setting [11]) is reported as 53.4%. Moreover, the “reduction of caspase 3/7 activity” value in series [9] (HEK293 cells, 5 nM, 24 hours) is 35.7%.

B2: RER promoter PLZF element, native (dsDNA)
DNA 1: CTTAACTACAGTTTTCACTGG
DNA 2: CCAGTGAAAACTGTAGTTAAG
B2 displayed a binding signal in series [10] of 6 fold.
